Laboratory results published in patent publication US8163873.

Key:
[1] = target: purified abnormally phosphorylated tau, mixed with affinity-purified normal tau (human) (UniProt P10636); assay: competition ELISA on captured tau mixture; unlabeled AT8 at 37 ng/ml, competitor biotinylated AT8 (its signal is read)
[2] = target: purified abnormally phosphorylated tau, mixed with affinity-purified normal tau (human) (UniProt P10636); assay: competition ELISA on captured tau mixture; signal of biotinylated AT8 with casein control, no competing antibody (row 1 µg/ml)
[3] = target: purified abnormally phosphorylated tau, mixed with affinity-purified normal tau (human) (UniProt P10636); assay: competition ELISA on captured tau mixture; signal of biotinylated AT8 with casein control, no competing antibody (row 111 ng/ml)
[4] = target: purified abnormally phosphorylated tau, mixed with affinity-purified normal tau (human) (UniProt P10636); assay: competition ELISA on captured tau mixture; unlabeled AT8 at 333 ng/ml, competitor biotinylated AT8 (its signal is read)
[5] = target: purified abnormally phosphorylated tau, mixed with affinity-purified normal tau (human) (UniProt P10636); assay: competition ELISA on captured tau mixture; unlabeled AT8 at 1 µg/ml, competitor biotinylated AT8 (its signal is read)
[6] = target: affinity-purified normal human tau (human) (UniProt P10636); assay: sandwich ELISA, normal tau at 100 ng/ml, fixed concentration of AT8
[7] = target: purified abnormally phosphorylated tau, mixed with affinity-purified normal tau (human) (UniProt P10636); assay: competition ELISA on captured tau mixture; signal of biotinylated AT8 with casein control, no competing antibody (row 333 ng/ml)
[8] = target: affinity-purified normal human tau (human) (UniProt P10636); assay: sandwich ELISA, normal tau at 1 µg/ml, fixed concentration of AT8
[9] = target: PHF-tau (abnormally phosphorylated human tau, 64 and 68 kDa forms, from Alzheimer brain) (human) (UniProt P10636); assay: sandwich ELISA, PHF-tau diluted 1/2000, fixed concentration of AT8
[10] = target: purified abnormally phosphorylated tau, mixed with affinity-purified normal tau (human) (UniProt P10636); assay: competition ELISA on captured tau mixture; signal of biotinylated AT8 with casein control, no competing antibody (row 3 µg/ml)
[11] = target: purified abnormally phosphorylated tau, mixed with affinity-purified normal tau (human) (UniProt P10636); assay: competition ELISA on captured tau mixture; unlabeled AT8 at 37 ng/ml, competitor biotinylated BT2 (its signal is read)
[12] = target: affinity-purified normal human tau (human) (UniProt P10636); assay: sandwich ELISA, normal tau at 10 ng/ml, fixed concentration of AT8
[13] = target: purified abnormally phosphorylated tau, mixed with affinity-purified normal tau (human) (UniProt P10636); assay: competition ELISA on captured tau mixture; signal of biotinylated AT8 with casein control, no competing antibody (row 37 ng/ml)
[14] = target: purified abnormally phosphorylated tau, mixed with affinity-purified normal tau (human) (UniProt P10636); assay: competition ELISA on captured tau mixture; unlabeled AT8 at 111 ng/ml, competitor biotinylated AT8 (its signal is read)
[15] = target: PHF-tau (abnormally phosphorylated human tau, 64 and 68 kDa forms, from Alzheimer brain) (human) (UniProt P10636); assay: sandwich ELISA, PHF-tau diluted 1/20, fixed concentration of AT8
[16] = target: purified abnormally phosphorylated tau, mixed with affinity-purified normal tau (human) (UniProt P10636); assay: competition ELISA on captured tau mixture; unlabeled AT8 at 9 µg/ml, competitor biotinylated AT8 (its signal is read)
[17] = target: purified abnormally phosphorylated tau, mixed with affinity-purified normal tau (human) (UniProt P10636); assay: competition ELISA on captured tau mixture; unlabeled AT8 at 3 µg/ml, competitor biotinylated AT8 (its signal is read)
[18] = target: purified abnormally phosphorylated tau, mixed with affinity-purified normal tau (human) (UniProt P10636); assay: competition ELISA on captured tau mixture; unlabeled AT8 at 9 µg/ml, competitor biotinylated BT2 (its signal is read)
[19] = target: purified abnormally phosphorylated tau, mixed with affinity-purified normal tau (human) (UniProt P10636); assay: competition ELISA on captured tau mixture; unlabeled AT8 at 3 µg/ml, competitor biotinylated BT2 (its signal is read)
[20] = target: purified abnormally phosphorylated tau, mixed with affinity-purified normal tau (human) (UniProt P10636); assay: competition ELISA on captured tau mixture; unlabeled AT8 at 333 ng/ml, competitor biotinylated BT2 (its signal is read)
[21] = target: purified abnormally phosphorylated tau, mixed with affinity-purified normal tau (human) (UniProt P10636); assay: competition ELISA on captured tau mixture; signal of biotinylated AT8 with casein control, no competing antibody (row 9 µg/ml)
[22] = target: purified abnormally phosphorylated tau, mixed with affinity-purified normal tau (human) (UniProt P10636); assay: competition ELISA on captured tau mixture; unlabeled AT8 at 111 ng/ml, competitor biotinylated BT2 (its signal is read)
[23] = target: PHF-tau (abnormally phosphorylated human tau, 64 and 68 kDa forms, from Alzheimer brain) (human) (UniProt P10636); assay: sandwich ELISA, PHF-tau diluted 1/200, fixed concentration of AT8
[24] = target: purified abnormally phosphorylated tau, mixed with affinity-purified normal tau (human) (UniProt P10636); assay: competition ELISA on captured tau mixture; unlabeled AT8 at 1 µg/ml, competitor biotinylated BT2 (its signal is read)
[25] = target: purified abnormally phosphorylated tau, mixed with affinity-purified normal tau (human) (UniProt P10636); assay: competition ELISA on captured tau mixture; signal of biotinylated BT2 with casein control, no competing antibody (row 333 ng/ml)
[26] = target: purified abnormally phosphorylated tau, mixed with affinity-purified normal tau (human) (UniProt P10636); assay: competition ELISA on captured tau mixture; unlabeled BT2 at 111 ng/ml, competitor biotinylated AT8 (its signal is read)
[27] = target: purified abnormally phosphorylated tau, mixed with affinity-purified normal tau (human) (UniProt P10636); assay: competition ELISA on captured tau mixture; unlabeled BT2 at 9 µg/ml, competitor biotinylated BT2 (its signal is read)
[28] = target: purified abnormally phosphorylated tau, mixed with affinity-purified normal tau (human) (UniProt P10636); assay: competition ELISA on captured tau mixture; unlabeled BT2 at 111 ng/ml, competitor biotinylated BT2 (its signal is read)
[29] = target: purified abnormally phosphorylated tau, mixed with affinity-purified normal tau (human) (UniProt P10636); assay: competition ELISA on captured tau mixture; unlabeled BT2 at 3 µg/ml, competitor biotinylated AT8 (its signal is read)
[30] = target: purified abnormally phosphorylated tau, mixed with affinity-purified normal tau (human) (UniProt P10636); assay: competition ELISA on captured tau mixture; signal of biotinylated BT2 with casein control, no competing antibody (row 9 µg/ml)
[31] = target: purified abnormally phosphorylated tau, mixed with affinity-purified normal tau (human) (UniProt P10636); assay: competition ELISA on captured tau mixture; unlabeled BT2 at 37 ng/ml, competitor biotinylated AT8 (its signal is read)
[32] = target: purified abnormally phosphorylated tau, mixed with affinity-purified normal tau (human) (UniProt P10636); assay: competition ELISA on captured tau mixture; unlabeled BT2 at 333 ng/ml, competitor biotinylated AT8 (its signal is read)
[33] = target: purified abnormally phosphorylated tau, mixed with affinity-purified normal tau (human) (UniProt P10636); assay: competition ELISA on captured tau mixture; unlabeled BT2 at 333 ng/ml, competitor biotinylated BT2 (its signal is read)
[34] = target: purified abnormally phosphorylated tau, mixed with affinity-purified normal tau (human) (UniProt P10636); assay: competition ELISA on captured tau mixture; signal of biotinylated BT2 with casein control, no competing antibody (row 37 ng/ml)
[35] = target: purified abnormally phosphorylated tau, mixed with affinity-purified normal tau (human) (UniProt P10636); assay: competition ELISA on captured tau mixture; unlabeled BT2 at 37 ng/ml, competitor biotinylated BT2 (its signal is read)
[36] = target: purified abnormally phosphorylated tau, mixed with affinity-purified normal tau (human) (UniProt P10636); assay: competition ELISA on captured tau mixture; unlabeled BT2 at 1 µg/ml, competitor biotinylated BT2 (its signal is read)
[37] = target: purified abnormally phosphorylated tau, mixed with affinity-purified normal tau (human) (UniProt P10636); assay: competition ELISA on captured tau mixture; signal of biotinylated BT2 with casein control, no competing antibody (row 111 ng/ml)
[38] = target: purified abnormally phosphorylated tau, mixed with affinity-purified normal tau (human) (UniProt P10636); assay: competition ELISA on captured tau mixture; signal of biotinylated BT2 with casein control, no competing antibody (row 1 µg/ml)
[39] = target: purified abnormally phosphorylated tau, mixed with affinity-purified normal tau (human) (UniProt P10636); assay: competition ELISA on captured tau mixture; unlabeled BT2 at 9 µg/ml, competitor biotinylated AT8 (its signal is read)
[40] = target: purified abnormally phosphorylated tau, mixed with affinity-purified normal tau (human) (UniProt P10636); assay: competition ELISA on captured tau mixture; signal of biotinylated BT2 with casein control, no competing antibody (row 3 µg/ml)
[41] = target: purified abnormally phosphorylated tau, mixed with affinity-purified normal tau (human) (UniProt P10636); assay: competition ELISA on captured tau mixture; unlabeled BT2 at 3 µg/ml, competitor biotinylated BT2 (its signal is read)
[42] = target: purified abnormally phosphorylated tau, mixed with affinity-purified normal tau (human) (UniProt P10636); assay: competition ELISA on captured tau mixture; unlabeled BT2 at 1 µg/ml, competitor biotinylated AT8 (its signal is read)

Substance: monoclonal antibody AT8
- absorbance at 450 nm [1]: 0.282 A450
- absorbance at 450 nm [2]: 0.548 A450
- absorbance at 450 nm [3]: 0.576 A450
- absorbance at 450 nm [4]: 0.093 A450
- absorbance at 450 nm [5]: 0.059 A450
- A150 nm [6]: 0.005 A150 nm
- absorbance at 450 nm [7]: 0.564 A450
- A150 nm [8]: 0.021 A150 nm
- A150 nm [9]: 0.565 A150 nm
- absorbance at 450 nm [10]: 0.573 A450
- absorbance at 450 nm [11]: 0.36 A450
- A150 nm [12]: 0.001 A150 nm
- absorbance at 450 nm [13]: 0.568 A450
- absorbance at 450 nm [14]: 0.155 A450
- A150 nm [15]: 1.46 A150 nm
- absorbance at 450 nm [16]: 0.056 A450
- absorbance at 450 nm [17]: 0.054 A450
- absorbance at 450 nm [18]: 0.369 A450
- absorbance at 450 nm [19]: 0.375 A450
- absorbance at 450 nm [20]: 0.369 A450
- absorbance at 450 nm [21]: 0.578 A450
- absorbance at 450 nm [22]: 0.381 A450
- A150 nm [23]: 1.18 A150 nm
- absorbance at 450 nm [24]: 0.368 A450

Substance: monoclonal antibody BT2
- absorbance at 450 nm [25]: 0.381 A450
- absorbance at 450 nm [26]: 0.573 A450
- absorbance at 450 nm [27]: 0.071 A450
- absorbance at 450 nm [28]: 0.245 A450
- absorbance at 450 nm [29]: 0.557 A450
- absorbance at 450 nm [30]: 0.369 A450
- absorbance at 450 nm [31]: 0.549 A450
- absorbance at 450 nm [32]: 0.556 A450
- absorbance at 450 nm [33]: 0.179 A450
- absorbance at 450 nm [34]: 0.395 A450
- absorbance at 450 nm [35]: 0.318 A450
- absorbance at 450 nm [36]: 0.122 A450
- absorbance at 450 nm [37]: 0.385 A450
- absorbance at 450 nm [38]: 0.375 A450
- absorbance at 450 nm [39]: 0.548 A450
- absorbance at 450 nm [40]: 0.39 A450
- absorbance at 450 nm [41]: 0.088 A450
- absorbance at 450 nm [42]: 0.55 A450
